One assay concerns the target β-amyloid peptide 1-40 (UniProt P05067). The assay is described as follows: cell-based or functional assay.
Assay [1] addresses biotinylated peptide composed of amino acids 1-16 of the Aβ peptide (UniProt P05067). The assay is described as follows: phage ELISA screen of colonies after biopanning, negative control.

In the case of “10D5 (monoclonal antibody against the N terminus of Aβ peptide)”, in the assay with β-amyloid peptide 1-40, the Percent Aggregation (ThT emission at 485 nm), plus 1 µM 10D5 came to 61.4% and the Percent Disaggregation (ThT), plus 1 µM 10D5 was 38.6%. For helper phage M13KO7, the absorbance at 492 nm (OD) in assay [1] lay within 0.003 to 0.005 OD.

(Values after patent publication US20090186027A1.)
